From article PMC10786891, “Massively parallel profiling of RNA-targeting CRISPR-Cas13d”

T1: EsCas13d, nuclease-dead (Eubacterium siraeum, UniProt B0MS50, R295A;H300A;R849A;H854A)
T1 sequence: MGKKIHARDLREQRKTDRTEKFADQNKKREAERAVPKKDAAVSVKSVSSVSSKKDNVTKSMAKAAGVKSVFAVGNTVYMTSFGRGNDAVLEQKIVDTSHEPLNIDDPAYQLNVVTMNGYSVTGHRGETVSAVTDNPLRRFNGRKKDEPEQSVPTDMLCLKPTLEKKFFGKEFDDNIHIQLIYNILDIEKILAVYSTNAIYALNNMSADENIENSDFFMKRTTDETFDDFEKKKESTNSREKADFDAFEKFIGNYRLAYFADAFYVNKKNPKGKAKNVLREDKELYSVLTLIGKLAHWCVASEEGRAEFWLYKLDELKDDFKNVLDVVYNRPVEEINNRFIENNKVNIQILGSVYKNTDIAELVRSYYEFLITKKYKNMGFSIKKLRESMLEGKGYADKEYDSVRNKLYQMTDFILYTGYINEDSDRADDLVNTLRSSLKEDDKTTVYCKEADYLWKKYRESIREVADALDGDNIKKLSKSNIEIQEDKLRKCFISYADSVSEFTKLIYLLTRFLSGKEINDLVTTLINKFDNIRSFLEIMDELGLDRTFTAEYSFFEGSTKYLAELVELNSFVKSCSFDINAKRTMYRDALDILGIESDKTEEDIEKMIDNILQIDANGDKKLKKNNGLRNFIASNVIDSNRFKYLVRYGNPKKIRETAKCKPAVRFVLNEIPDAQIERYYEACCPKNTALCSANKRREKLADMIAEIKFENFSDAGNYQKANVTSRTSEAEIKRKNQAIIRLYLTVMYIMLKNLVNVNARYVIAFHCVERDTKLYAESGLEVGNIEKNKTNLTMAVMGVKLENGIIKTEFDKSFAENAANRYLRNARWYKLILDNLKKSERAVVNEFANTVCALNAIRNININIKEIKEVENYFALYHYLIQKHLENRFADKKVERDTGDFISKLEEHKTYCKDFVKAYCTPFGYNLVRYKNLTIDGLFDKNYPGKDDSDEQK

B1: target 2 MT 5'PFS GGC 3'PFS CAG (mixed)
RNA 1: CACCCGUGCAAAAUUGCAGGGGUCUAAAACCUUCUCCAAAUUGUUUCAUCCU
RNA 2: GGGAAUGGAUCCACAUCUACGAAUUCGGCAGGAUGAAACAAUUUGGAGAAGCAGAGAUCGGAAGAGCACACGU
B2: target 2 MT 5'PFS AGU 3'PFS UCU (mixed)
RNA 1: CACCCGUGCAAAAUUGCAGGGGUCUAAAACCUUCUCCAAAUUGUUUCAUCCU
RNA 2: GGGAAUGGAUCCACAUCUACGAAUUCAGUAGGAUGAAACAAUUUGGAGAAGUCUAGAUCGGAAGAGCACACGU
B3: target 2 MT 5'PFS CAC 3'PFS CCC (mixed)
RNA 1: CACCCGUGCAAAAUUGCAGGGGUCUAAAACCUUCUCCAAAUUGUUUCAUCCU
RNA 2: GGGAAUGGAUCCACAUCUACGAAUUCCACAGGAUGAAACAAUUUGGAGAAGCCCAGAUCGGAAGAGCACACGU
B4: target 2 MT 5'PFS CAU 3'PFS CAG (mixed)
RNA 1: CACCCGUGCAAAAUUGCAGGGGUCUAAAACCUUCUCCAAAUUGUUUCAUCCU
RNA 2: GGGAAUGGAUCCACAUCUACGAAUUCCAUAGGAUGAAACAAUUUGGAGAAGCAGAGAUCGGAAGAGCACACGU
B5: target 2 MT 5'PFS GUA 3'PFS AAU (mixed)
RNA 1: CACCCGUGCAAAAUUGCAGGGGUCUAAAACCUUCUCCAAAUUGUUUCAUCCU
RNA 2: GGGAAUGGAUCCACAUCUACGAAUUCGUAAGGAUGAAACAAUUUGGAGAAGAAUAGAUCGGAAGAGCACACGU
B6: target 2 MT 5'PFS UAG 3'PFS AGA (mixed)
RNA 1: CACCCGUGCAAAAUUGCAGGGGUCUAAAACCUUCUCCAAAUUGUUUCAUCCU
RNA 2: GGGAAUGGAUCCACAUCUACGAAUUCUAGAGGAUGAAACAAUUUGGAGAAGAGAAGAUCGGAAGAGCACACGU
B7: target 2 MT 5'PFS UAG 3'PFS AGC (mixed)
RNA 1: CACCCGUGCAAAAUUGCAGGGGUCUAAAACCUUCUCCAAAUUGUUUCAUCCU
RNA 2: GGGAAUGGAUCCACAUCUACGAAUUCUAGAGGAUGAAACAAUUUGGAGAAGAGCAGAUCGGAAGAGCACACGU
B8: target 2 MT 5'PFS AUA 3'PFS UAC (mixed)
RNA 1: CACCCGUGCAAAAUUGCAGGGGUCUAAAACCUUCUCCAAAUUGUUUCAUCCU
RNA 2: GGGAAUGGAUCCACAUCUACGAAUUCAUAAGGAUGAAACAAUUUGGAGAAGUACAGAUCGGAAGAGCACACGU
B9: target 2 MT 5'PFS GGC 3'PFS CAU (mixed)
RNA 1: CACCCGUGCAAAAUUGCAGGGGUCUAAAACCUUCUCCAAAUUGUUUCAUCCU
RNA 2: GGGAAUGGAUCCACAUCUACGAAUUCGGCAGGAUGAAACAAUUUGGAGAAGCAUAGAUCGGAAGAGCACACGU
B10: target 2 MT 5'PFS GUA 3'PFS AAG (mixed)
RNA 1: CACCCGUGCAAAAUUGCAGGGGUCUAAAACCUUCUCCAAAUUGUUUCAUCCU
RNA 2: GGGAAUGGAUCCACAUCUACGAAUUCGUAAGGAUGAAACAAUUUGGAGAAGAAGAGAUCGGAAGAGCACACGU
B11: target 2 MT 5'PFS AUU 3'PFS CGC (mixed)
RNA 1: CACCCGUGCAAAAUUGCAGGGGUCUAAAACCUUCUCCAAAUUGUUUCAUCCU
RNA 2: GGGAAUGGAUCCACAUCUACGAAUUCAUUAGGAUGAAACAAUUUGGAGAAGCGCAGAUCGGAAGAGCACACGU
B12: target 2 MT 5'PFS AUA 3'PFS UAU (mixed)
RNA 1: CACCCGUGCAAAAUUGCAGGGGUCUAAAACCUUCUCCAAAUUGUUUCAUCCU
RNA 2: GGGAAUGGAUCCACAUCUACGAAUUCAUAAGGAUGAAACAAUUUGGAGAAGUAUAGAUCGGAAGAGCACACGU
B13: target 2 MT 5'PFS AUA 3'PFS UAA (mixed)
RNA 1: CACCCGUGCAAAAUUGCAGGGGUCUAAAACCUUCUCCAAAUUGUUUCAUCCU
RNA 2: GGGAAUGGAUCCACAUCUACGAAUUCAUAAGGAUGAAACAAUUUGGAGAAGUAAAGAUCGGAAGAGCACACGU
B14: target 2 MT 5'PFS GUA 3'PFS AAA (mixed)
RNA 1: CACCCGUGCAAAAUUGCAGGGGUCUAAAACCUUCUCCAAAUUGUUUCAUCCU
RNA 2: GGGAAUGGAUCCACAUCUACGAAUUCGUAAGGAUGAAACAAUUUGGAGAAGAAAAGAUCGGAAGAGCACACGU
B15: target 2 MT 5'PFS CUU 3'PFS AUU (mixed)
RNA 1: CACCCGUGCAAAAUUGCAGGGGUCUAAAACCUUCUCCAAAUUGUUUCAUCCU
RNA 2: GGGAAUGGAUCCACAUCUACGAAUUCCUUAGGAUGAAACAAUUUGGAGAAGAUUAGAUCGGAAGAGCACACGU
B16: target 2 MT 5'PFS AUC 3'PFS CAG (mixed)
RNA 1: CACCCGUGCAAAAUUGCAGGGGUCUAAAACCUUCUCCAAAUUGUUUCAUCCU
RNA 2: GGGAAUGGAUCCACAUCUACGAAUUCAUCAGGAUGAAACAAUUUGGAGAAGCAGAGAUCGGAAGAGCACACGU
B17: target 2 MT 5'PFS GGG 3'PFS UUU (mixed)
RNA 1: CACCCGUGCAAAAUUGCAGGGGUCUAAAACCUUCUCCAAAUUGUUUCAUCCU
RNA 2: GGGAAUGGAUCCACAUCUACGAAUUCGGGAGGAUGAAACAAUUUGGAGAAGUUUAGAUCGGAAGAGCACACGU
B18: target 2 MT 5'PFS GUA 3'PFS UCG (mixed)
RNA 1: CACCCGUGCAAAAUUGCAGGGGUCUAAAACCUUCUCCAAAUUGUUUCAUCCU
RNA 2: GGGAAUGGAUCCACAUCUACGAAUUCGUAAGGAUGAAACAAUUUGGAGAAGUCGAGAUCGGAAGAGCACACGU
B19: target 2 MT 5'PFS AGU 3'PFS UCC (mixed)
RNA 1: CACCCGUGCAAAAUUGCAGGGGUCUAAAACCUUCUCCAAAUUGUUUCAUCCU
RNA 2: GGGAAUGGAUCCACAUCUACGAAUUCAGUAGGAUGAAACAAUUUGGAGAAGUCCAGAUCGGAAGAGCACACGU
B20: target 2 MT 5'PFS AAA 3'PFS UAC (mixed)
RNA 1: CACCCGUGCAAAAUUGCAGGGGUCUAAAACCUUCUCCAAAUUGUUUCAUCCU
RNA 2: GGGAAUGGAUCCACAUCUACGAAUUCAAAAGGAUGAAACAAUUUGGAGAAGUACAGAUCGGAAGAGCACACGU
B21: target 2 MT 5'PFS GGC 3'PFS UAC (mixed)
RNA 1: CACCCGUGCAAAAUUGCAGGGGUCUAAAACCUUCUCCAAAUUGUUUCAUCCU
RNA 2: GGGAAUGGAUCCACAUCUACGAAUUCGGCAGGAUGAAACAAUUUGGAGAAGUACAGAUCGGAAGAGCACACGU
B22: target 2 MT 5'PFS UAG 3'PFS AGG (mixed)
RNA 1: CACCCGUGCAAAAUUGCAGGGGUCUAAAACCUUCUCCAAAUUGUUUCAUCCU
RNA 2: GGGAAUGGAUCCACAUCUACGAAUUCUAGAGGAUGAAACAAUUUGGAGAAGAGGAGAUCGGAAGAGCACACGU
B23: target 2 MT 5'PFS AGG 3'PFS AGU (mixed)
RNA 1: CACCCGUGCAAAAUUGCAGGGGUCUAAAACCUUCUCCAAAUUGUUUCAUCCU
RNA 2: GGGAAUGGAUCCACAUCUACGAAUUCAGGAGGAUGAAACAAUUUGGAGAAGAGUAGAUCGGAAGAGCACACGU
B24: target 2 MT 5'PFS CAC 3'PFS CCA (mixed)
RNA 1: CACCCGUGCAAAAUUGCAGGGGUCUAAAACCUUCUCCAAAUUGUUUCAUCCU
RNA 2: GGGAAUGGAUCCACAUCUACGAAUUCCACAGGAUGAAACAAUUUGGAGAAGCCAAGAUCGGAAGAGCACACGU
B25: target 1 insG 3' of 20,insG 3' of 8 (mixed)
RNA 1: CACCCGUGCAAAAAUGCAGGGGUCUAAAACUGAGCGGAUAACCUCUCUAUGG
RNA 2: GGGAAUGGAUCCACAUCUACGAAUUCGUACCAGUAGAGAGGUUAUGCCGCUCACCGAGAUCGGAAGAGCACACGU
B26: target 1 insA 3' of 13,insC 3' of 10 (mixed)
RNA 1: CACCCGUGCAAAAAUGCAGGGGUCUAAAACUGAGCGGAUAACCUCUCUAUGG
RNA 2: GGGAAUGGAUCCACAUCUACGAAUUCGUACCAUAGAGAGAGUUCAUCCGCUCACCGAGAUCGGAAGAGCACACGU
B27: target 1 insU 3' of 22,insA 3' of 19 (mixed)
RNA 1: CACCCGUGCAAAAAUGCAGGGGUCUAAAACUGAGCGGAUAACCUCUCUAUGG
RNA 2: GGGAAUGGAUCCACAUCUACGAAUUCGUACUCAUAAGAGAGGUUAUCCGCUCACCGAGAUCGGAAGAGCACACGU
B28: target 1 insC 3' of 16,insG 3' of 7 (mixed)
RNA 1: CACCCGUGCAAAAAUGCAGGGGUCUAAAACUGAGCGGAUAACCUCUCUAUGG
RNA 2: GGGAAUGGAUCCACAUCUACGAAUUCGUACCAUAGACGAGGUUAUCGCGCUCACCGAGAUCGGAAGAGCACACGU

Target: T1, EsCas13d, nuclease-dead
Assay: crRNA (strand 1, pre-loaded); Mg2+; 40 mM Tris-HCl pH 7.5, 150 mM NaCl, 6 mM MgCl2, 1 mM DTT, 0.1% Tween-20, 0.2 mg/ml BSA; 25 C; 10 min per concentration, then washed
Settings: tags: His6-TwinStrep-SUMO cleaved; N-terminal SNAP kept (SNAP-Surface 488); label: 3' end held by stalled T7 RNA polymerase

Row | Binder | Kd
1 | B1 | 12.1 ± 1.4 nM
2 | B2 | 21.3 ± 3.4 nM
3 | B3 | 25 ± 10 nM
4 | B4 | 3.25 ± 0.3 nM
5 | B5 | 5.8 ± 0.6 nM
6 | B6 | 2.53 ± 0.33 nM
7 | B7 | 1.91 ± 0.21 nM
8 | B8 | 7.2 ± 1.6 nM
9 | B9 | 14.4 ± 2 nM
10 | B10 | 7 ± 0.6 nM
11 | B11 | 7.8 ± 0.6 nM
12 | B12 | 7.1 ± 1.4 nM
13 | B13 | 5.5 ± 1.1 nM
14 | B14 | 5.5 ± 0.7 nM
15 | B15 | 3.9 ± 0.4 nM
16 | B16 | 80 ± 40 nM
17 | B17 | 48 ± 12 nM
18 | B18 | 9.5 ± 0.7 nM
19 | B19 | ~51 nM
20 | B20 | ~6.7 nM
21 | B21 | 18.9 ± 3.5 nM
22 | B22 | 2.74 ± 0.24 nM
23 | B23 | 4.04 ± 0.32 nM
24 | B24 | 4.5 ± 1.2 nM
25 | B25 | 40 ± 4 nM
26 | B26 | 9.2 ± 0.9 nM
27 | B27 | 80 ± 14 nM
28 | B28 | 66 ± 14 nM
